# According to patent publication US6656716 (SUGEN, dated 2003):
# Target: T1, SULU1-coiled-coil2 (GST fusion of human SULU1 amino acids 752-898) (human, UniProt Q5R4F3 752-898 (Pongo abelii entry))
# T1 construct: Bait made as a C-terminal fusion to GST, expressed in E. coli and immobilised for T7 phage display selection; also called Construct 1; SULU1 Coiled-coil2 bait; not shown: glutathione S-transferase (GST) of the pGEX-4T vector
# T1 sequence: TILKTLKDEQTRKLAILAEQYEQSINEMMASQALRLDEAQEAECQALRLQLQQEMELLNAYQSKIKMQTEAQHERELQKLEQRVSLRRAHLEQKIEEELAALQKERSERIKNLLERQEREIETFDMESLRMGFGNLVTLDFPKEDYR
# Test: T7 phage display, H441 cDNA library, immobilised GST-fusion bait
# Procedure: Aliquots of refreshed libraries (10^10–10^12 pfu) supplemented with PanMix and a cocktail of […] inhibitors (Sigma P-8465) were incubated for 1–2 hrs at room temperature with the immobilized baits. Unbound phage was extensively washed (at least 4 times) with wash buffer.
# Individual plaques were picked into 25 µL of 10 mM EDTA and the phage was disrupted by heating at 70° C. for 10 min. 2 µL of the disrupted phage were added to 50 µL PCR reaction mix. The insert DNA was amplified by 35 rounds of thermal cycling (94° C., 50 sec; 50° C., 1 min; 72° C., 1 min).
binder,measurement,value
"GEK2 coiled-coil domain fragment (residues 677-820 of SEQ ID NO:26) displayed on T7 phage (other, also called GEK2 CC1; GEK2 cc dom; not shown: T7 phage coat protein of the T7Select1-1b vector) KESMKQKMEEHTQKKQLLDRDFVAKQKEDLELAMKRLTTDNRREICDKERECLMKKQELLRDREAALWEMEEHQLQERHQLVKQQLKDQYFLQRHELLRKHEKEREQMQRYNQRMIEQLKVRQQQEKARLPKIQRSEGKTRMAM",binding result,binds
